Reference: PMC11969024 (2025)

B1: peptide HD2 (from tick evasin EVA4) / CXCL14 (biotinylated, synthetic) (parent complex)
chain 1: EEDDYTAYAPLTCYFT
chain 2: SKCKCSRKGPKIRYSDVKKLEMKPKYPHCEEKMVIITTKSVSRYRGQEHCLHPKLQSTKRFIKWYNAWNEKRRVYEE
B2: peptide HD2 (from tick evasin EVA4) / CCL1 (biotinylated, synthetic) (parent complex)
chain 1: EEDDYTAYAPLTCYFT
chain 2: KSMQVPFSRCCFSFAEQEIPLRAILCYRNTSSICSNEGLIFKLKRGKEACALDTVGWVQRHRKMLRHCPSKRK

Variants of: B1

Row | Variant | enrichment
1 | chain 1 T6R | 3.99 log2 (difference from the parental peptide)
2 | chain 1 D4W | -5.85 log2 (difference from the parental peptide)
3 | chain 1 D3P | -5.77 log2 (difference from the parental peptide)
4 | chain 1 T6G | 4.19 log2 (difference from the parental peptide)
5 | chain 1 F15R | -5.53 log2 (difference from the parental peptide)
6 | chain 1 T16A | -3.04 log2 (difference from the parental peptide)
7 | chain 1 E1L | 0.456 log2 (difference from the parental peptide)
8 | chain 1 T12F | 2.31 log2 (difference from the parental peptide)
9 | chain 1 Y14W | -6.55 log2 (difference from the parental peptide)
10 | chain 1 T6I | 0.467 log2 (difference from the parental peptide)
11 | chain 1 E2W | 0.435 log2 (difference from the parental peptide)
12 | chain 1 L11F | 1.48 log2 (difference from the parental peptide)
13 | chain 1 L11Q | -4.52 log2 (difference from the parental peptide)
14 | chain 1 D3E | -1.97 log2 (difference from the parental peptide)
15 | chain 1 E2T | -2.03 log2 (difference from the parental peptide)
16 | chain 1 D4N | 1.31 log2 (difference from the parental peptide)
17 | chain 1 L11H | 3.17 log2 (difference from the parental peptide)
18 | chain 1 Y8V | 3.87 log2 (difference from the parental peptide)
19 | chain 1 T12L | 1.89 log2 (difference from the parental peptide)
20 | chain 1 A7K | 3.78 log2 (difference from the parental peptide)
21 | chain 1 T6L | 0.717 log2 (difference from the parental peptide)
22 | chain 1 T16P | -4.73 log2 (difference from the parental peptide)
23 | chain 1 P10W | 1.96 log2 (difference from the parental peptide)
24 | chain 1 E1F | 0.23 log2 (difference from the parental peptide)

Row | Variant | enrichment
25 | chain 1 Y5I | 0.188 log2 (difference from the parental peptide)
26 | chain 1 D4S | -1.33 log2 (difference from the parental peptide)
27 | chain 1 P10G | -1.01 log2 (difference from the parental peptide)
28 | chain 1 A9M | 0.996 log2 (difference from the parental peptide)
29 | chain 1 A9I | 0.725 log2 (difference from the parental peptide)
30 | chain 1 T16M | 1.39 log2 (difference from the parental peptide)
31 | chain 1 E2L | -1.86 log2 (difference from the parental peptide)
32 | chain 1 C13W | -7.91 log2 (difference from the parental peptide)
33 | chain 1 A9Y | -5.34 log2 (difference from the parental peptide)
34 | chain 1 Y14Q | -6.31 log2 (difference from the parental peptide)
35 | chain 1 T6V | -0.538 log2 (difference from the parental peptide)
36 | chain 1 T16V | -2.39 log2 (difference from the parental peptide)
37 | chain 1 T16K | 0.732 log2 (difference from the parental peptide)
38 | chain 1 P10S | -0.979 log2 (difference from the parental peptide)
39 | chain 1 T16E | -5.76 log2 (difference from the parental peptide)
40 | chain 1 T12K | -5.85 log2 (difference from the parental peptide)
41 | chain 1 A7E | 2.45 log2 (difference from the parental peptide)
42 | chain 1 C13E | -8.19 log2 (difference from the parental peptide)
43 | chain 1 T6C | -9.38 log2 (difference from the parental peptide)
44 | chain 1 A7F | 2.13 log2 (difference from the parental peptide)
45 | chain 1 Y14L | -8.75 log2 (difference from the parental peptide)
46 | chain 1 E1D | 2.43 log2 (difference from the parental peptide)
47 | chain 1 Y8F | -1.72 log2 (difference from the parental peptide)
48 | chain 1 T6A | 0.332 log2 (difference from the parental peptide)

Row | Variant | enrichment
49 | chain 1 A9L | 0.282 log2 (difference from the parental peptide)
50 | chain 1 T12P | -5.93 log2 (difference from the parental peptide)
51 | chain 1 E1I | 3.24 log2 (difference from the parental peptide)
52 | chain 1 Y5H | -3.59 log2 (difference from the parental peptide)
53 | chain 1 L11T | -4.92 log2 (difference from the parental peptide)
54 | chain 1 T6H | -0.995 log2 (difference from the parental peptide)
55 | chain 1 T6W | 5.58 log2 (difference from the parental peptide)
56 | chain 1 T12Q | -4.89 log2 (difference from the parental peptide)
57 | chain 1 L11M | 2.64 log2 (difference from the parental peptide)
58 | chain 1 E1W | -4.16 log2 (difference from the parental peptide)
59 | chain 1 F15I | -3.52 log2 (difference from the parental peptide)
60 | chain 1 Y8D | 2.61 log2 (difference from the parental peptide)
61 | chain 1 L11W | 0.85 log2 (difference from the parental peptide)
62 | chain 1 A7L | 0.408 log2 (difference from the parental peptide)
63 | chain 1 D4Y | -1.42 log2 (difference from the parental peptide)
64 | chain 1 Y5C | -4.43 log2 (difference from the parental peptide)
65 | chain 1 A7P | -3.32 log2 (difference from the parental peptide)
66 | chain 1 T12C | -5.89 log2 (difference from the parental peptide)
67 | chain 1 L11S | -6.87 log2 (difference from the parental peptide)
68 | chain 1 A7V | -1.42 log2 (difference from the parental peptide)
69 | chain 1 T12Y | 2.9 log2 (difference from the parental peptide)
70 | chain 1 C13V | 2.72 log2 (difference from the parental peptide)

Variants of: B2

Row | Variant | enrichment
71 | chain 1 L11W | -0.114 log2 (difference from the parental peptide)
72 | chain 1 F15S | -0.0654 log2 (difference from the parental peptide)
73 | chain 1 T12R | -1.56 log2 (difference from the parental peptide)
74 | chain 1 T16N | -0.351 log2 (difference from the parental peptide)
75 | chain 1 L11R | 0.643 log2 (difference from the parental peptide)
